Measured values from the domain aggregation screens of Martell et al. (2025).

Assay: soluble fraction after stress (log2 fold change); higher = more stays soluble; pooled small domains, quantitative proteomics
Conditions: stress: 75 degC
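Note: 20 min heating vs room temperature control held 20 min.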

| Sequence | soluble fraction (log2) |
| --- | --- |
| HMGSEGVKVEDTIGMSEAEATATLGKSGFVVNKTESHDPYIKAGNVITQSPAAGSKAPKGTTVTLTISLGP | 0.404 |
| HMGSEISYSEFLNRVEQGQVAAVRLDGEQIFITGPTGEAYQTIQPRNTDVLPDLREAGVEIQAAPQ | 0.22 |
| HMGSEYPSNPLASRWAKGVRLYHDEWGYGVIQAARGSEPDDYVITVRFESGAEKSFLPKFQAHSLMIVKD | -1.21 |
| HMGSGQVTLPDLEGKSMKEVARILSQLGLHLSPDGHGLAFKQSPAAGTRVPVGSTIKVSFQPL | -0.164 |
| HMGSKKAIPYVSGMSETEAQNELEEAGFKVTSSFQYDDSVESGKVISTTPEAGTKAEKGSTVTMLVSQGSN | 0.0103 |
| HMGSLVQTAMQAVTKHIHDNAMRVGDTLPGEGHFAETLGVSRAVMREAFGALAALKLIDVGNGRKPRVGR | -1.33 |
| HMGSNATIKYAIKGDESLVQVAQKFNVTVSELRSWNNISAFENAKTGQELVINVPASKYETYFALANT | 0.403 |
| HMGSNLSFDLSQIIASRYQEKAAELGLTAPSLARTDLSPQEQATAEVVARAIIADYYDQRVAPFNDLIPQ | -0.631 |
| HMGSNRPLALGDVVRIEGSKTLGTILELNAKDAVVALGALKTTLPLSRIHHASSQESQRLKRQATQAPLR | -0.203 |
| HMGSPKLVIKNGQVDYQVLKKEKLDLLELTSLLRGQNTFSIREIEYAIIEPNGVITVIKKPEYQSVVKGDL | -0.43 |
| HMGSPVTAVMNRVLNETERQIVTLHVISGFKHREIAELLEKPVGTVLWTYNNALGKMRKAMQRE | -1.67 |
| HMGSRRFGDSNHAAKLTEEQVVEIRELAAAGATTKFLAEMVGMHPNYVGLILRGLSWPEAGGPLRVA | 0.126 |
| HMGSVDMVYGDHKINSEHMDLSFKNQTAVLYDKVNYKSSLSMLSADKILVNFLNKYTKIEMNDENNNILIQ | 0.176 |
| HMGSVNDNVQKLTSQIGETTETGDTITPEDVELYKKMVDPLSTMAQKLEAAEILKLKGIIGSNGIIV | -0.211 |
| HMGSWEDALKNWVDSALASGQKGILEQAVPKFERIMIETALTHTAGRRRDASLLLGWGRNTLTRKIKELGI | -0.383 |
| HMGTAESIRLFLSSGLIKGVGEALAGRIVDTFGTDTFDIIENHPELLAGVKGISHRLAMSIYESFSQHIGV | -1.13 |
| HMGTDIGADKAAQTALADAGLSSSQVTGLRTKQDWDDGQLRYEVEFRAGGVEYDYELAADGTILKADRDT | 0.17 |
| HMGTEITEQRAKEIALENAKVAESDVTAMRVKKEMDDGVWRYDVEFYVQNKEYDYEINAMDGTILSVDYD | -0.00128 |
| HMGTESFGARIRKIREARDWTPAALAEATGQTPEFVARVERDEVAPPVAFLLRLAAALGVDPSTF | -0.557 |
| HMGTGADKNSWTIGDKVKHRKWGTGTVVKVTGAGEDAELDIAFKSEGIKRLLAAFAPIEKVK | -0.165 |
| HMGTHDAGTRFFDNLDSLLQNRDATRADVLAVYLLAVSLGFRGKHRSVSSAPQIAHYRNQAYVTLFQ | 0.737 |
| HMGTIEQAFKGKAPGSAHLYDRARAVLAGGVTHDTRIHAPFPIMVQRALGARKWDVDGNEYIDY | 0.064 |
| HMGTMKGFVDGSSVHLRSGPSLSESIRAKVVKGQTLYITERRGDWYRATVHGGGEGWIHTSLVKLAG | -1.68 |
| HMGTPLYLLLAAEVRDRIATEQLAPHTAVPSERELAELHGVSRMTARQALALLESEGLVYRNPPRGTFVAE | -1.15 |
| HMGTQIKSPMPGTILDVRVNVGDTVKEGDILMILEAMKMENEILAPVSGKVAAIQVSKGTAVNSGDLLAVL | -0.0689 |
| HMGTRHPLPYAYARANTVLLEDDGDRLVLWAPENVSLTALGEVLRRFDVDALERESSSTLANRIAVAYAG | -0.774 |

| Sequence | soluble fraction (log2) |
| --- | --- |
| HMGTTLTKIPGIGENRARLLLRHFGSLRAVREADADALAAVKGMTRPAAEAIVRYFEQQDAEGRRD | 0.282 |
| HMGTTTPPATRKGKVTSSFLNVRSGPSTANAKVAELKQNAVVTIYETSSNGWHRIGVNQWVIGTNIQE | -1.2 |
| HMGTVSSGSSSTDTPFSLGEIVRHKVFGEGVVLSIEGQGDASRIQINFNTAGTKWLVTAYADLEK | -1.09 |
| HMGTVVKRNALVHAWTEFNGGRASTKLLALGPGKVGEWIELENPQSGRKLRGEVQVDGSVRLG | 0.0593 |
| HMGTWKKIGTMTATVNDLYVRETPNGYIMGFINKGTVVEVDGKTTGKWTHAKVEGIGVGWIWTGYLDK | -3.17 |
| HMGTYYTEIIAQLKKEIANGTWKLGERLPGELALAKQFNVSRSSIREALKALAYAGIVESKPGRGTFLLHV | -1.5 |
| HMGVAAEDPDEAEKGAHSLKSSAANVGAEVVRGLAGEIESAASSGDVEAVRTILPGLEDAYSQAITDLET | 0.266 |
| HMGVDMGPAKYVGQKALTATEMRPAGKIQIGQTVFDAVSVGPFIGARKAVKVIKYENAQLYVEPE | -0.415 |
| HMGVEVEVPNVKGKLVADAEYELGLAQLTPVRTDSAYNRNLPPGTVLEQLPASGSHVKEGREIYLTINST | 0.284 |
| HMGVGERIKARRKEIGLSAEQVAKELGVSPATVYRYESNDIMNMRIDKLEPIAKALHTTPAYLMGWE | -0.0856 |
| HMGVGVKSTEVDYQRTSSGSDIPTDDAAWTKTIPAVKVNTFLWTRTKINYTDGTSAIFYSVGY | -3.05 |
| HMGVGVPVTLLLEKLGEDTLSAQQIMERLGLKSRASFRKVYLVPALEQKLIEMEFPDKPNSSKQRYRR | -0.859 |
| HMGVISRVITFWQNGFTVDDGPLRAFDDPANMAFMESIGRGEAPAELAPKTRTQRVNINLVQRHEPYSAPK | -0.147 |
| HMGVITVRPPIVVRDFAIALNLKPFQVIGNLMELNKVVSVSSVIEEADARKVAERHGYTLEIRH | -1.67 |
| HMGVMNEYEELRDRYLTGQIWKIGDLVEAKGIEGKIIQRGTNYITFNDSQGKVHKAWLHEIKV | -0.00315 |
| HMGVNNDIIKHRKLEFMIEMLPDTFTRKEANEIGEGLGISLATLTRYLSSDAFERTGHGRYRKKD | -1.35 |
| HMGVPTEQEIGKRILAWRKLRGMTLQQLADKAGVGLTTIHNLETGLWYAKMPTYLYIAEALGVSLDALIYG | -1.76 |
| HMGVPVTAPMPGKVLKVTVSVGAAVKNGDLVLVLEAMKMENEIFATANGVVKEIRSREGDTVNSGDVMMVI | -2.19 |
| HMGVRPAALGFQKVRIEPQVGTFREASGDVITPRGLIHAEWKRDEENALHLHYTLPDGVAYA | -0.0752 |
| HMGVSDDMARGVVRARQFLSDFAAVPLDRMTPAEAVARARQLKSELETDAKHSPWLLDVLSNA | -0.116 |
| HMGVSEIGSPAWMESKLVTLASYEGSLDGLRTLWGGVAQHRARIPVESWDRLFAAKEEGKARLVKLGRT | -1.25 |
| HMGVSLREVPVAEHGDWIGRPIKELGIPAEVLIVLVRRADGTTVVPKGGTVLQQGDMLVVNEWEE | -1.16 |
| HMGVTDSSYNVLRRQILEMLSVQQRTPADLARLIEADKEEIAAVIRFLLDKGEIQMEDGMLQTK | -0.821 |
| HMGVVEEVAADFEGRAVVGKVDVDEQTELARRFGIMSIPTLVVMKGGKVVEQAVGARGKADIAAMLERH | 0.183 |
| HMGYINLNVKVSPEWRDFWRSAYASVVAGYHQNKEHWNTIILDGSIPDKDIKRMIAESYDLVSD | -0.561 |
| HMGYLNDRQRLIKDFITENQPLKVSDLVKQFPNIGLSTLKKDLQYLRGEQVLTMIGKGKGSVYVLNKK | -0.975 |

| Sequence | soluble fraction (log2) |
| --- | --- |
| HMGYNDQEVKSNLITLLSTSKTGLSGVEISAQLGINRVTMTKFLNVFAAEGIIKQKNIGNLNLWLVEEGTE | -3.44 |
| HMGYTTSFVVQLKNAVSISFDEIDQNLRKLPGVEDVVIVEEAAMAYLKVDRQHFREEQLAHFEFVRQ | -1.99 |
| HMGYVQLTAREKEVLQGLVDGASYKMIAAKLDIRFGTVHTHVKNIYEKLHVNSASEAVVKAIRQRL | -2.26 |
| HMHADIAATVVATMRQLGVLGLPRNYEIFYEALSGTNRELSLAVVSLSNRPTQDDLDRIGRRFFA | -1.33 |
| HMHAEEIAREAKEALERGEEFHFAGITVRSEEALEFLEEWLRKFF | -1.02 |
| HMHALSVKFSDEAAKTLPYDILSALRDVLALDPRPGYSRDENKIYRFEYADYNISFSVKDKTLTVLSAEK | -2.15 |
| HMHAPRIEVVQIDPEKIGALIGPGGKNIRRITEVTGANLDIDEDNSGKIRVYASDSEAMNRALQEIDLVT | 0.308 |
| HMHDHKTRLQELAAQRFGSAPSYLLTADGPAHDRRFHASVEVGGRSFGPGTGKSKKRAEQVAAHIAWDALS | 0.238 |
| HMHDIPDITDLRPLRHTLGLTLAHAAQQLNTTTATISRLERGQHRNDHLATTYRTWLHTHPT | -0.291 |
| HMHDLSQQIVRYLIQQGGSSSLTDKSDPQEIYRTFKVSKKKYKQALGNLYKSKTIVITSGKIELVD | -3.03 |
| HMHDYNTIVGVIEMRDKNIPLTSIRQRYGIGYSGIDLILTRYKDSGLTLKEFLALDPSQAEELIYPPK | -0.961 |
| HMHEHWDGSGFPKHLRGANIPLGARVIAVADTYDSITSSRAYRAGSTHEAAEREMRRVSGTQLDPE | 0.0624 |
| HMHEIVDTVLQVKQSVEADPLIAPALKNKEIVFQLNAKGVFQFKNAVIQVASALGISKNTVYMHLRNNK | -3.04 |
| HMHETMGQIIKRLRKERGLTQESLAERLGVTFQAVSKWETDAGMPDVSQIVPLANAFGVRTDVLFGLEGRD | -0.744 |
| HMHEYSRIYQQQWWDNATGADAYHVIHSARSRAAQDPEAARALEYLEEQFRIRYGVRTEDFLGYLHD | -1.2 |
| HMHFENEETFVLPLVREGFSEQQQLEMVDRLLFDANTDNPRWIIDWMASELPSTQRELLLDLEKRLAEVRS | -0.0441 |
| HMHFEWNELRKAINDFLAEQNMNEDKQLGPYFIQRDIVVPETGTEIDSKKFSEVFKHKVIMYLFDDAAKQ | 0.0433 |
| HMHGESISVPDLRGQKMERMPAFLADKHLQFKVIDSLFDLEKNPGTVLEQDPAPNSKVKEGRTIYLTVNAQ | -0.00257 |
| HMHGQGTYTSPDGTKYVGDWQDEKMHGQGTYTYPDGMKFVGEFKDNKPWNGTGYDKYGNVKATFSNGVGKS | -0.0508 |
| HMHGSSSTVPPVKGLSFEQARLTLAENDLTVEISDSIYDRNARPGTVVESWPRAGSVVKQGRQVYVTVTAF | -0.894 |
| HMHHDDHNQQEEIKEKLLAMVADGERHHVTEVRQLDEDWDMVTKVMKELMDEEQLLMDGSYLILSA | 0.116 |
| HMHHSGLRQSQFDEISRQIRSLLEMESLSLQELKTRMEDVPEEQLTKVVSYLLSEEIIRQENGRLQ | 0.254 |
| HMHKAVVGPPNARKLAVTYGFKRWPALVFFRDGKYLGAVDGLRLWADLVREADEIMHSEPHYP | 0.0613 |
| HMHKFMEQNQDRRLSRMKELIGILSEAAKTYYQESREIMSNFQYDRMYDELLELEKETGVVMAGSPTQKV | -0.276 |
| HMHKKQEVQDSIDAAEEFMRASGVPAELITSKRAYAVKAIYADAVDKGTPDEIVKKDGMIVALISQMRS | 0.421 |
